Measurements: IntAct's records for PubMed 14638859

B1: ADP-ribosylation factor-binding protein GGA1 (Homo sapiens), Q9UJY5 (parent)
chain: MEPAMEPETLEARINRATNPLNKELDWASINGFCEQLNEDFEGPPLATRLLAHKIQSPQEWEAIQALTVLETCMKSCGKRFHDEVGKFRFLNELIKVVSPKYLGSRTSEKVKNKILELLYSWTVGLPEEVKIAEAYQMLKKQGIVKSDPKLPDDTTFPLPPPRPKNVIFEDEEKSKMLARLLKSSHPEDLRAANKLIKEMVQEDQKRMEKISKRVNAIEEVNNNVKLLTEMVMSHSQGGAAAGSSEDLMKELYQRCERMRPTLFRLASDTEDNDEALAEILQANDNLTQVINLYKQLVRGEEVNGDATAGSIPGSTSALLDLSGLDLPPAGTTYPAMPTRPGEQASPEQPSASVSLLDDELMSLGLSDPTPPSGPSLDGTGWNSFQSSDATEPPAPALAQAPSMESRPPAQTSLPASSGLDDLDLLGKTLLQQSLPPESQQVRWEKQQPTPRLTLRDLQNKSSSCSSPSSSATSLLHTVSPEPPRPPQQPVPTELSLASITVPLESIKPSNILPVTVYDQHGFRILFHFARDPLPGRSDVLVVVVSMLSTAPQPIRNIVFQSAVPKVMKVKLQPPSGTELPAFNPIVHPSAITQVLLLANPQKEKVRLRYKLTFTMGDQTYNEMGDVDQFPPPETWGSL
partner: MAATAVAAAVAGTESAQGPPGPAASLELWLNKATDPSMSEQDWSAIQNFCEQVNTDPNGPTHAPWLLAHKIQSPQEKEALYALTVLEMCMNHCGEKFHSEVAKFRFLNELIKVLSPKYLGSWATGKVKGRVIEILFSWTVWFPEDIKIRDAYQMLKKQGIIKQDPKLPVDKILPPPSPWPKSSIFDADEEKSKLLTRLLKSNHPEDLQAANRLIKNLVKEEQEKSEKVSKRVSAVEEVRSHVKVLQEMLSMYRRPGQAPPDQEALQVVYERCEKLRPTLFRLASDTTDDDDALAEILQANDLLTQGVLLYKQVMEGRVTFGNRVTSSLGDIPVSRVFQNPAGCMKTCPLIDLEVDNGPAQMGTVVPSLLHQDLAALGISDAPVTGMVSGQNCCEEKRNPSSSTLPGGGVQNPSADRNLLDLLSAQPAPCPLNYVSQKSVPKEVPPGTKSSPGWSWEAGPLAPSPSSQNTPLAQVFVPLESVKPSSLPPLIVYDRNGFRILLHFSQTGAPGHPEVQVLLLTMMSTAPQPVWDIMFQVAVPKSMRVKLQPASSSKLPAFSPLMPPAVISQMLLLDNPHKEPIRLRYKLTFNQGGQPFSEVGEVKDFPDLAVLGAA

Variants of: B1
Conditions: with gga2_human GGA2, Q9UJY4

D358A was tested. Which “effect of a mutation on the interaction” value did it give?
The value was “with no effect”.
